Assay results: publication PMC2674534

Molecular target: Sox9 (UniProt Q04887 1-507)
Assay: EMSA

Sox9, sequence (Q04887 whole entry): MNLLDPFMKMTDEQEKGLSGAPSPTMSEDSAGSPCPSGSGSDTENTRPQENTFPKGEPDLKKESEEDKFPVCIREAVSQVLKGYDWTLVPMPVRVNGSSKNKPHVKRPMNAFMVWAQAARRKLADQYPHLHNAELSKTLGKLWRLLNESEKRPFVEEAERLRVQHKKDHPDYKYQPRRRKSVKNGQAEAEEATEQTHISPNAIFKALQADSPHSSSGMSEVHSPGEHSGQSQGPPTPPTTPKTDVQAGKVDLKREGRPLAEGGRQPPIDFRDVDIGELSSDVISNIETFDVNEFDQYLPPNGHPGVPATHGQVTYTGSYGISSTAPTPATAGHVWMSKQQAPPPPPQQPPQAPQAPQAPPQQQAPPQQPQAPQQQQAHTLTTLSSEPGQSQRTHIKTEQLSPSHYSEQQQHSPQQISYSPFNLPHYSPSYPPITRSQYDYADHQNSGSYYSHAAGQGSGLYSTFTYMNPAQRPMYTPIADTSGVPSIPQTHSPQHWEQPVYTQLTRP

B1: Col2a1 enhancer probe (Sox9-binding site) (dsDNA)
DNA 1: GCGCTTGAGAAAAGCCCCATTCATGAGAGGC
DNA 2: GCCTCTCATGAATGGGGCTTTTCTCAAGCGC
- binding result: binds
